Assay results taken from article PMC10275640.
Each block holds one substance with its values, some of them ahead of it.

Legend:
[1] = target: Uso1(E6K/G540S)ΔCTR-His6x (residues 1–1040) (Aspergillus nidulans); assay: AUC + other: dynamic light scattering; sedimentation velocity (20 °C, 48,000 rpm, PBS with 5% glycerol and 1 mM β-mercaptoethanol) and DLS at 20 °C; molecular mass from the Svedberg equation, compared with the predicted monomer
[2] = target: Bet1-GST (Bet1 cytoplasmic domain, residues 1–144); assay: GST pull-down with purified proteins, anti-His western blot quantitation; details: n = 3, read off a plot
[3] = target: Uso1 CCD-His6x (coiled-coil domain, residues 660–1103) (Aspergillus nidulans); assay: AUC + other: dynamic light scattering; sedimentation velocity (20 °C, 48,000 rpm, PBS with 5% glycerol and 1 mM β-mercaptoethanol) and DLS at 20 °C; molecular mass from the Svedberg equation, compared with the predicted monomer
[4] = target: Uso1ΔCTR-His6x (residues 1–1040) (Aspergillus nidulans); assay: as above
[5] = target: Bos1-GST (Bos1 cytoplasmic domain, residues 1–219); assay: GST pull-down with purified proteins, anti-His6x western blot quantitation; details: 4 data points; parent: est. 0.5; read off a plot
[6] = target: Uso1-HA3 (native full-length Uso1 in Aspergillus extract) (Aspergillus nidulans); assay: SEC; Aspergillus cell extract on Superose 6 10/300 in 25 mM Tris-HCl pH 7.5, 600 mM KCl, 4 mM EDTA, 1 mM DTT; fractions blotted with α-HA
[7] = target: Bos1-GST (Bos1 cytoplasmic domain, residues 1–219) (Aspergillus nidulans); assay: pull-down; 75 µg SNARE-GST on glutathione Sepharose; His6 preys at 0.2 µM, overnight at 4 °C in 25 mM HEPES-KOH pH 7.5, 150 mM NaCl, 10% glycerol, 0.1% Triton X-100, 0.1 mM DTT; anti-His blot
[8] = target: Bos1-GST (Bos1 cytoplasmic domain, residues 1–219); assay: GST pull-down with purified proteins, anti-His western blot quantitation; details: n = 3; parent: est. 0.7; read off a plot
[9] = target: Bet1-GST (Bet1 cytoplasmic domain, residues 1–144) (Aspergillus nidulans); assay: pull-down; 75 µg SNARE-GST on glutathione Sepharose; His6 preys at 0.2 µM, overnight at 4 °C in 25 mM HEPES-KOH pH 7.5, 150 mM NaCl, 10% glycerol, 0.1% Triton X-100, 0.1 mM DTT; anti-His blot
[10] = target: Uso1-His6x (full-length Uso1, residues 1–1103) (Aspergillus nidulans); assay: AUC + other: dynamic light scattering; sedimentation velocity (20 °C, 48,000 rpm, PBS with 5% glycerol and 1 mM β-mercaptoethanol) and DLS at 20 °C; molecular mass from the Svedberg equation, compared with the predicted monomer
[11] = target: Uso1-His6x (full-length Uso1, residues 1–1103) (Aspergillus nidulans); assay: SEC; bacterially expressed, purified His-tagged reference proteins run on the same Superose column; fractions blotted with α-His
[12] = target: Uso1(E6K/G540S)-His6x (full length) (Aspergillus nidulans); assay: AUC + other: dynamic light scattering; sedimentation velocity (20 °C, 48,000 rpm, PBS with 5% glycerol and 1 mM β-mercaptoethanol) and DLS at 20 °C; molecular mass from the Svedberg equation, compared with the predicted monomer

Substance: Uso1(E6K/G540S)ΔCTR-His6x (residues 1–1040) (domain or fragment)
stoichiometry N [1]: 2

Substance: Uso1-His6x (full-length Uso1, residues 1–1103) E6K; G540S
response ([2]; parent: est. 68): 60 % bound prey

stoichiometry N [3]: 2
Substance: Uso1 CCD-His6x (coiled-coil domain, residues 660–1103) (domain or fragment)

Substance: Uso1ΔCTR-His6x (residues 1–1040) (domain or fragment)
stoichiometry N [4]: 2

Substance: Uso1 GHD-His6x (globular head domain, residues 1–659) G540S
response (% of input prey bound) [5]: 35

stoichiometry N [6]: 2
Substance: Uso1-HA3 (native full-length Uso1 in Aspergillus extract) (natural protein)

Substance: Uso1 GHD E6K (single mutant), His-tagged (domain or fragment)
fold less efficient than G540S GHD [7]: 3 fold

Substance: Uso1 GHD-His6x (globular head domain, residues 1–659) E6K; G540S
response (% of input prey bound) [5]: 35 | response [8]: 21 % bound prey | response ([2]; parent: est. 30): 38 % bound prey

percent of the prey pulled down [9]: 70% | stoichiometry N [10]: 2 | stoichiometry N [11]: 2
Substance: Uso1-His6x (full-length Uso1, residues 1–1103) (natural protein)

Substance: Uso1(E6K/G540S)-His6x (full length) (natural protein)
fold change in protein retained against wild-type Uso1 [7]: 5 fold | stoichiometry N [12]: 2
